The data set deals with the molecule itself. Put plainly: negative-stain transmission electron microscopy.

B1: light-dependent protochlorophyllide oxidoreductase (LPOR) isoform AtPORB (enzyme, Arabidopsis thaliana)
chain: QTAATSSPTVTKSVDGKKTLRKGNVVVTGASSGLGLATAKALAETGKWNVIMACRDFLKAERAAKSVGMPKDSYTVMHLDLASLDSVRQFVDNFRRTETPLDVLVCNAAVYFPTAKEPTYSAEGFELSVATNHLGHFLLARLLLDDLKKSDYPSKRLIIVGSITGNTNTLAGNVPPKANLGDLRGLAGGLNGLNSSAMIDGGDFDGAKAYKDSKVCNMLTMQEFHRRFHEETGVTFASLYPGCIASTGLFREHIPLFRALFPPFQKYITKGYVSETESGKRLAQVVSDPSLTKSGVYWSWNNASASFENQLSEEASDVEKARKVWEISEKLVGLA
In the case of B1, the binding result is “binds”.

Values taken from paper doi:10.1101/2024.10.21.619389 (bioRxiv, 2024).
